The target of the test is nucleosome core particle (NCP) of human histones H2A, H2B, H3.1 and H4 with the 145 base-pair Widom 601 DNA, P04908;P06899;P68431;P62805. In words: electrophoretic mobility shift assay. To be noted: non-denaturing 4% polyacrylamide gel, SYBR Gold staining, n = 3, read off a plot.

“p300(BRPH_(ΔAIL)Z), catalytic core of human p300 (aa 1035-1720, Y1467F, autoinhibition loop replaced by a linker) (from UniProt Q09472) K1456A; K1459A; K1461A; R1462A”: the response is 2.5% (0.4 µM p300(BRPHΔAILZ), parent: est. 48); 6% (0.8 µM p300(BRPHΔAILZ), parent: est. 71); 8.5% (1.2 µM p300(BRPHΔAILZ), parent: est. 82).
Turning to “p300(BRPH_(ΔAIL)Z), catalytic core of human p300 (aa 1035-1720, Y1467F, autoinhibition loop replaced by a linker) (from UniProt Q09472) R1137A”, the response by setting is: (0.4 µM p300(BRPHΔAILZ), parent: est. 41) 3.3%; (0.8 µM p300(BRPHΔAILZ), parent: est. 62) 8%; (1.2 µM p300(BRPHΔAILZ), parent: est. 75) 13%.
